Reference: the RNAGym collection of RNA variant scans (doi:10.1093/molbev/msab373)

B1: Azoarcus group I ribozyme (parent)
chain: GUGCCUUGCGCCGGGAAACCACGCAAGGGAUGGUGUCAAAUUCGGCGAAACCUAAGCGCCCGCCCGGGCGUAUGGCAACGCCGAGCCAAGCUUCGGCGCCUGCGCCGAUGAAGGUGUAGAGACUAGACGGCACCCACCUAAGGCAAACGCUAUGGUGAAGGCAUAGUCCAGGGAGUGGCGAAAGUCACACAAACCGG

Variants of: B1
Assay: reverse-splicing fitness (ratio to wild type); higher = more active; in vitro selection; Mg2+ level not given
Method in brief: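 An in vitro group I ribozyme library with randomized positions was T7-transcribed and gel-purified. In triplicate, 10 pmol RNA in EPPS pH 7.5 was reacted with 50 pmoles of a 30-nt RNA substrate for 1 h at 37 °C across several added MgCl2 levels (1–48 mM), then stopped with EDTA. Products were reverse transcribed from a substrate-complementary primer, PCR-amplified and sequenced (HiSeq 4000). Fitness is a variant's read proportion after selection over that before, normalised to wild type.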

Row | Variant | reverse-splicing fitness
1 | A111G A120G C169U U176A | 0.0845
2 | A111G A120G C169U U176C | 0.0969
3 | A111G A120G C169U U176G | 0.011
4 | A111G A120U A145C C150U C169G | 0.0196
5 | A111G A120U A145C C150U C169A | 0.0024
6 | A111G A120U A145C C150U C169U | 0.0277
7 | A111G A120U A145G C150A C169U U176G | 0.00242
8 | A111G A120U A145G C150A C169U U176A | 0.00579
9 | A111G A120U A145G C150A C169U U176C | 0.00673
10 | A111G A120U A145C C169G U176G | 0.00205
11 | A111G A120U A145C C169G U176C | 0.00699
12 | A111G A120U A145C C169G U176A | 0.00876
13 | A111G A120U A145C C150G C169U U176G | 0.00225
14 | A111G A120U A145C C150G C169U U176C | 0.0023
15 | A111G A120U A145C C150G C169U U176A | 0.00272
16 | A111G A120U A145G C150A U176C | 0.0581
17 | A111G A120U A145G C150A U176A | 0.0506
18 | A111G A120U A145G C150A U176G | 0.0119
19 | A111G A120U A145C C169A | 0.00532
20 | A111G A120U A145C C169U | 0.12
21 | A111G A120U A145C C169G | 0.0842

Row | Variant | reverse-splicing fitness
22 | A111G A120U A145C C150A U176G | 0.00839
23 | A111G A120U A145C C150A U176A | 0.0179
24 | A111G A120U A145C C150A U176C | 0.00924
25 | A111G A120U A145G C150U C169U | 0.111
26 | A111G A120U A145G C150U C169G | 0.0623
27 | A111G A120U A145G C150U C169A | 0.00841
28 | A111G A120U A145G C150G U176G | 0.00403
29 | A111G A120U A145G C150G U176C | 0.0188
30 | A111G A120U A145G C150G U176A | 0.00779
31 | A111G A120U A145U C150G C169G | 0.0082
32 | A111G A120U A145U C150G C169A | 0.00344
33 | A111G A120U A145U C150A C169A U176A | 0.00244
34 | A111G A120U A145U C150A C169A U176G | 0.00207
35 | A111G A120U A145U C150A C169A U176C | 0.00238
36 | A111G A120G C169A U176G | 0.00449
37 | A111G A120U A145G C150A C169G U176C | 0.00584
38 | A111G A120U A145G C150A C169G U176A | 0.0104
39 | A111G A120U A145G C150A C169G U176G | 0.00256
40 | A111G A120U A145U C150A C169U U176G | 0.00172
41 | A111G A120U A145U C150A C169U U176A | 0.00329
42 | A111G A120U A145U C150A C169U U176C | 0.00339

Row | Variant | reverse-splicing fitness
43 | A111G A120U A145C | 0.701
44 | A111G A120U A145U | 0.759
45 | A111G A120U A145G | 0.667
46 | A111G A120U A145G C169G U176C | 0.0201
47 | A111G A120U A145G C169G U176G | 0.00189
48 | A111G A120U A145G C169G U176A | 0.00934
49 | A111G A120U A145G C150G C169A U176G | 0.00395
50 | A111G A120U A145G C150G C169A U176A | 0.00856
51 | A111G A120U A145G C150G C169A U176C | 0.00599
52 | A111G A120U A145U C150G C169G U176A | 0.00284
53 | A111G A120U A145U C150G C169G U176G | 0.00203
54 | A111G A120U A145U C150G C169G U176C | 0.00268
55 | A111G A120U A145U C150A C169A | 0.00222
56 | A111G A120U A145U C150A C169U | 0.0112
57 | A111G A120U A145U C150A C169G | 0.00763
58 | A111G A120U A145C C150U C169A U176G | 0.00196
59 | A111G A120U A145C C150U C169A U176A | 0.00259
60 | A111G A120U A145C C150U C169A U176C | 0.00228
61 | A111G A120U A145G U176C | 0.386
62 | A111G A120U A145G U176A | 0.344
63 | A111G A120U A145G U176G | 0.124

Row | Variant | reverse-splicing fitness
64 | A111G A120U A145C U176A | 0.332
65 | A111G A120U A145C U176C | 0.214
66 | A111G A120U A145C U176G | 0.131
67 | A111G A120U A145C C150A C169G U176C | 0.00181
68 | A111G A120U A145C C150A C169G U176A | 0.00272
69 | A111G A120U A145C C150A C169G U176G | 0.00195
70 | A111G A120U A145U C150A C169G U176A | 0.00286
71 | A111G A120U A145U C150A C169G U176C | 0.00285
72 | A111G A120U A145U C150A C169G U176G | 0.00159
73 | A111G A120U A145C C150A C169U U176A | 0.00311
74 | A111G A120U A145C C150A C169U U176G | 0.00197
75 | A111G A120U A145C C150A C169U U176C | 0.00268
76 | A111G A120U A145G C169A U176G | 0.0013
77 | A111G A120U A145G C169A U176C | 0.00372
78 | A111G A120U A145G C169A U176A | 0.00347
79 | A111G A120U A145C C169U U176A | 0.0207
80 | A111G A120U A145C C169U U176G | 0.00329
81 | A111G A120U A145C C169U U176C | 0.0146
82 | A111G A120U A145G C150A C169U | 0.0188
83 | A111G A120U A145G C150A C169G | 0.0141
84 | A111G A120U A145G C150A C169A | 0.00596
